Assay results: the RNAGym collection of RNA variant scans (doi:10.1073/pnas.2313332121)
Fewer inactive variants are shown than the library holds.

B1: TPR 5TU (parent)
chain: GGAUCUUCUCGAUCUAACAAAAAAGACAAAUCUGCCACAAAGCUUGAGAGCAUCUUCGGAUGCAGAGGCGGCAGCCUUCGGUGGCGCGAUAGCGCCAACGUUCUCAACUAUGACACGCAAAACGCGUGCUCCGUUGAAUGGAGUUUAUCAUG

Variants of: B1
Test: polymerase ribozyme fitness, log enrichment relative to wild type (log ratio); higher = more active; in vitro selection for triplet polymerase activity
In short: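 Mutant libraries of both subunits of a heterodimeric triplet polymerase ribozyme were PCR-built, transcribed, and selected once in triplicate, with frozen incubation at −7 °C and capture of gel-excised extended constructs on streptavidin beads before RT-PCR. Illumina sequencing of input and output libraries was filtered to genotypes with ≥10 input reads and ≥1 read per output. Fitness is the logarithm of genotype enrichment over wild-type enrichment, using inverse-variance-weighted replicate averages. The logarithm is base 2.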

| Variant | polymerase ribozyme fitness (log ratio) |
| --- | --- |
| GGAUCUUCUCGAUCUAACAAACAAGACAAAUCUGCCACAAAGCUUGAGAGCAUCUUCGGAUGCAGAGGCCGCAGCCUUCGGUGGCGCGAUAGCGCCAACGUUCUCAACUAUGACACGCAAAACGCGUGCUCCGUUGAAUGGAGUUUAUCAUG [A22C G70C] | -4 |
| GGAUCUUCUCGAUCUAACAAAAAAGACAAAUCUGCCACAACGCUUGAGAGCAUCUUCGGAUGCAGAGGCGGCAGCCUUUGGUGGCGCGAUAGCGUCAACGUUCUCAACUAUGACACGCAAAACGCGUGCUCCGUUGAAUGGAGUUUAUCAUG [A41C C79U C95U] | -3.78 |
| GGAUCUUCUCGAUCUAACAAAAAAGACAAAUCUGCCACAAAGCUUGACAGCAUCUUCCGAUGCAGAGGCGGCAGCCUUCGGUGGCGCGAUAGCGCCAAGGUUCUCAACUAUGACACGCAAAACGCGUGCUCCGUUGAAUGGAGUUUAUCAUG [G48C G58C C99G] | ≤ -4.2 |
| GGAUCUUCUCGAUCUAACAAAAAAGACAAAUCUGCCACAAAGCUUGAGAGCAUCUUCGGAUGCAGGGGCGGCAGCCUUCGGUGGCGCGAUAGCGCCAACGUUCUCAACUAUGAUACGCAAAACGCGUGCUCCGUUGAAUGGAGUUUAUCAUG [A66G C114U] | -4.17 |
| GGAUCUUCUCGAUCUAACAAAAAAGACAAAUCUGCCACAAAGCUUGAGAGCAUCUUCGGAUGUAGAGGCGGCAGCCUUCGGUGGCGCGAUAGCGCCAACGUUCUCAACUAUGACACGCAAAACGCGUGCUCCGAUGAAUGGAGUUUAUCAUG [C63U U134A] | -2.6 |
| GGAUCUUCUCGAUCUAACAAAAAAGACAAAUCUGCCAAAAAGCUUGAGAGCAUCUUUGGAUGCAGAGGCGGCAGCCUUCGGUGGCGCGAUAGCGCCAACGUUCUCAACUAUGUCACGCAAAACGCGUGCUCCGUUGAAUGGAGUUUAUCAUG [C38A C57U A113U] | -1.65 |
| GGAUCUUCUCGAUCUUACAAAAAAGACAAAUCUGCCACAAAGCUUGAGAGCAUCUUCGGAGGCAGAGGCGGCAGCCCUCGGUGGAGCGAUACCGCCAACGUUCUCAACUAUGACACGCAAAACGCGUGCUCCGUUGAAUGGAGAUUAUCAUG [A16U U61G U77C C85A G92C U144A] | ≤ -4.2 |
| GGAUCUUCUCGAUCUAACAAAAAAGACAAAUCUGCCACAAAGCUUGAGAGCAUCUUCGGAUGCAGAGGCGGCAGCCUUCGGUGGCGCAAUAGGGCAAACGUUCUCAACUGUGACACGCAAAAGGCGUGCUCCGUUGAAUGGAGUUUAUCAUG [G88A C93G C96A A110G C123G] | ≤ -4.2 |
| GGAUCUUCUCGAUCUAACAAAAAAGACAAAUCUGCCACAAAGCUUGCGAGCAUCUUCGGAUGCAGAGGCGGCAGCCUUCGGUGGCGCGAUAGCGCCAACGUUCGCAACUAUGACACGCAAAACUCGUGCUCCGUUGAAUGGAGUUUAUCAUG [A47C U104G G124U] | -0.000534 |
| GGAUCUUCUCGAUCUAACAAAAAAGACAAAUCUGCCACAAAGCUUGAGAGCAUCUACGGAUGCAGAGGCGGCAGCCUUCGGUGGCGCGAUAGCGCCAACGUUCUCAACUAUGACACGCAAAACGCGUGCUUCGUUGAAUGGAGUUUAUCAUG [U56A C131U] | 0.529 |
| GGAUCUUCUCGAUCUAACAAAAAAGACGAAUCUGCCACAAAGCUUGAGAGCAUCUUCGGAUGCAGAGGCGGCAGCCUUCGGUGGCGCGAUAGCGCCAACGUUCUCAACUAUGACACGCAAAACGCGUGCUCCGUUGAAUGGAGUCUAUCAUG [A28G U145C] | ≤ -4.2 |
| GGAUCUUCUCGAUCUAACAAAAAUGACAAAUCUGCCACAAAACUUGAGAGCAACUUCGGAUGCAGAGGCGGCAGCCUUCGGUGGCGCGAGAGCGCCAACGUUCUCAUAUAUGACACGCAAAACGCGUGCUCCGUUGAAUGGAGUCUAUCAUG [A24U G42A U53A U90G A107U C108A U145C] | ≤ -4.2 |
| GGAUCUUCUCGAUCUAACAAAAAAGACAAAUCUGUCACAAAGCUUGAGAGCAUCUUCGGAUGCAGAGGCGGCAGCCUUCGGUAGCGCGAUAGCGCCAACGUUCUCAACUAUGACAAGCAAAACGCGUGCUCCGUUGAAUGGAGUUUAUCAUG [C35U G83A C116A] | -1.03 |
| GGAUCUUCUCGAUCUAAUAAAAAAGACAAAUCUGCCACAAAGCUUGAGAGCAUCUUCGGAUGCAGAGGCGGCAGCCUUCGGUGGCGCGAUAGCGCCAACGUUCUCAACUAUGGCACGCAAAAAGCGUGCUCCGUUGAAUGGAGUUUAUCAUG [C18U A113G C123A] | -3.22 |
| GGUUCUUCUCGGGCUAACCAAAAAGACAAAUCUGCCACAAAGCUUGAGAGCAUCUUCGGAUGCAGAGGCGGCAGCCUUCGGUGGCGCGAUAGCGCCAACGUUCUCAACUAUGACACGCAAAACGCGUGCUCCGUUGAAUGGAUUUUAUCAUG [A3U A12G U13G A19C G143U] | -2.98 |
| GGAUCUUCUCGAUCUAACAAAAAAGACAAAUCUGCCACAAAGCUUGAGAGCAUCAUCGGAUGCAGAGGCGGCAGCCUUCGGUGGCGCGAUAGCGCCAACGUUCUCAACUAUGACACGCAAAACGCGUGCUCCGUUGAAUGGAGUUUAUCAUG [U55A] | -0.301 |
| GGAUCUUCUCGCUCUAACAAAAAAGACAAAUCUGCCACAAAGCUUGAGAGCAUCUUCGGAUGCAGAGGCGGCAGCCUUCGGUGGUGCGAUAGCGCCAACGUUCUCAACUAUGACACGCAAAACGCGUGCUCCGUUGAAUGGAGUUUAUCAUG [A12C C85U] | -1.44 |
| GGAUCUUCUCGAUCUAACAAAAAGGACAAAUCUGCCACAAAGCUUGAGAGCAUCUUCGGAUGCAGAGGCGGCAGCCUUCGGUGGCGCGAUAGCGCCAACGUUCUCAACUAUGACACGCAUAACGCGUGCUCCGUUGAAUGGAGUUUAUCAUG [A24G A120U] | -3.9 |
| GGAUCUUCUCGAUCUAACAAAAAAGACAAAUCUGCCACAAAGCUUGAGAGCAUCUUCGGAUGCAGAGGCGGCAGCCUUCGGUGACGCGAUAGCGCCAACGUUCUCAACUAUGACACGCAAGAUGCGUGCUUCGUUGAAUGGAGUUUAUCAUG [G84A A121G C123U C131U] | 0.94 |
